# Experimental data published in patent publication US20190269786A1 (published 2019).
# Legend:
# Experiment in all cases: cell-based or functional assay
# EGFR = EGFR (UniProt P00533 25-1210, limits assumed)
# [1] = target: T1, folate receptor 1 (FOLR1) (human, UniProt P15328 25-234)
# [2] = target: T1, folate receptor 1 (FOLR1); remark: listed apart in the source
# [3] = target: T1, folate receptor 1 (FOLR1); remark: listed apart in the source
# T1 sequence (P15328 25-234): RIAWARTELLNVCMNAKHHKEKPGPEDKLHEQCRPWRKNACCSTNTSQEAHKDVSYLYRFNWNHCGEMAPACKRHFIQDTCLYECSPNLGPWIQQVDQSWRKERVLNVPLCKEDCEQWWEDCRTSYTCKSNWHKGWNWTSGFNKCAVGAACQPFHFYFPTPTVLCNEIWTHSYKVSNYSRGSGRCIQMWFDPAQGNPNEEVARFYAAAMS
Binder,"IC50, in vitro cytotoxicity (WST-8), Ishikawa cells, conjugate [3] [nM]","IC50, in vitro cytotoxicity (WST-8), KB cells, conjugate [3] [nM]","IC50, in vitro cytotoxicity (WST-8), NCI-H2110 cells, conjugate [3] [nM]","IC50, in vitro cytotoxicity, Ishikawa cells, conjugate + unmodified antibody (1 µM huMOV19) [3] [nM]","IC50, in vitro cytotoxicity, KB cells, conjugate + unmodified antibody (1 µM huMOV19) [3] [nM]","IC50, in vitro cytotoxicity, NCI-H2110 cells, conjugate + unmodified antibody (1 µM huMOV19) [3] [nM]",also measured
"huML66-90 conjugate (antibody, human IgG1, kappa, V domains shown, drug attachment sites not stated (see heavy chain); compound 90 conjugated to the antibody, average 2.7 per antibody; residues not stated) VH: QVQLQESGPGLVKPSETLSLTCTVSGLSLASNSVSWIRQPPGKGLEWMGVIWNHGGTDYNPSIKSRLSISRDTSKSQVFLKMNSLTAADTAMYFCVRKGGIYFDYWGQGVLVTVSS VL: DTVLTQSPSLAVSPGERATISCRASESVSTLMHWYQQKPGQQPKLLIYLASHRESGVPARFSGSGSGTDFTLTIDPMEAEDTATYYCQQSRNDPWTFGQGTKLELKR",–,–,–,–,–,–,"EC50, in vitro cytotoxicity (WST-8), Detroit-562 cells (EGFR): 0.016 nM; EC50, in vitro cytotoxicity (WST-8), NCI-H292 cells (EGFR): 0.012 nM; EC50, in vitro cytotoxicity (WST-8), NCI-H1703 cells (EGFR): 0.02 nM; EC50, in vitro cytotoxicity, Detroit-562 cells, +block (excess unconjugated huML66 antibody) (EGFR): 2.35 nM; EC50, in vitro cytotoxicity, NCI-H292 cells, +block (excess unconjugated huML66 antibody) (EGFR): 1.57 nM; EC50, in vitro cytotoxicity, NCI-H1703 cells, +block (excess unconjugated huML66 antibody) (EGFR): 2.14 nM"
"huMOV19-14 conjugate (antibody, human IgG1, kappa, V domains shown, drug attachment sites not stated (see heavy chain); compound 14 (indolinobenzodiazepine dimer, Gly-Gly-Gly linker, NHS ester) conjugated to the antibody, average 3.0 per antibody; residues not stated) VH: QVQLVQSGAEVVKPGASVKISCKASGYTFTGYFMNWVKQSPGQSLEWIGRIHPYDGDTFYNQKFQGKATLTVDKSSNTAHMELLSLTSEDFAVYYCTRYDGSRAMDYWGQGTTVTVSS VL: DIVLTQSPLSLAVSLGQPAIISCKASQSVSFAGTSLMHWYHQKPGQQPRLLIYRASNLEAGVPDRFSGSGSKTDFTLTISPVEAEDAATYYCQQSREYPYTFGGGTKLEIKR",–,–,–,–,–,–,"IC50, in vitro cytotoxicity (WST-8) against KB cells [1]: 0.004 nM"
"huMOV19-90 conjugate (antibody, human IgG1, kappa, V domains shown, drug attachment sites not stated (see heavy chain); compound 90 (indolinobenzodiazepine dimer, L-Ala-L-Ala linker, NHS ester) conjugated to the antibody, average 2.7 per antibody; residues not stated) VH: QVQLVQSGAEVVKPGASVKISCKASGYTFTGYFMNWVKQSPGQSLEWIGRIHPYDGDTFYNQKFQGKATLTVDKSSNTAHMELLSLTSEDFAVYYCTRYDGSRAMDYWGQGTTVTVSS VL: DIVLTQSPLSLAVSLGQPAIISCKASQSVSFAGTSLMHWYHQKPGQQPRLLIYRASNLEAGVPDRFSGSGSKTDFTLTISPVEAEDAATYYCQQSREYPYTFGGGTKLEIKR",0.05,0.005,0.1,1,1,4,"IC50, in vitro cytotoxicity (WST-8), KB cells, -Block [2]: 0.004 nM; IC50, in vitro cytotoxicity (WST-8), NCI-H2110 cells, -Block [2]: 0.02 nM; IC50, in vitro cytotoxicity, KB cells, +Block (1 µM blocking anti-FOLR1 antibody huMOV19) [2]: 0.8 nM; IC50, in vitro cytotoxicity, NCI-H2110 cells, +Block (1 µM blocking anti-FOLR1 antibody huMOV19) [2]: 10 nM"
"huMOV19-sulfo-SPDB-107 conjugate (antibody, human IgG1, kappa, V domains shown, drug attachment sites not stated (see heavy chain); compound 107 linked through sulfo-SPDB linker to the antibody, average 2.7 per antibody; residues not stated) VH: QVQLVQSGAEVVKPGASVKISCKASGYTFTGYFMNWVKQSPGQSLEWIGRIHPYDGDTFYNQKFQGKATLTVDKSSNTAHMELLSLTSEDFAVYYCTRYDGSRAMDYWGQGTTVTVSS VL: DIVLTQSPLSLAVSLGQPAIISCKASQSVSFAGTSLMHWYHQKPGQQPRLLIYRASNLEAGVPDRFSGSGSKTDFTLTISPVEAEDAATYYCQQSREYPYTFGGGTKLEIKR",0.05,0.005,0.1,2,0.8,7,–
